Values quoted from earlier work as cited in PMC10581250.

Key:
[1] = molecular target: OdhA (Corynebacterium glutamicum) (UniProt Q8NRC3); experiment: surface plasmon resonance
[2] = molecular target: OdhA (E1oE2o subunit) (Corynebacterium glutamicum) (UniProt Q8NRC3)
[3] = molecular target: KGD (Mycobacterium smegmatis) (UniProt A1KI36)
UniProt A1KI36, sequence (A1KI36 whole entry): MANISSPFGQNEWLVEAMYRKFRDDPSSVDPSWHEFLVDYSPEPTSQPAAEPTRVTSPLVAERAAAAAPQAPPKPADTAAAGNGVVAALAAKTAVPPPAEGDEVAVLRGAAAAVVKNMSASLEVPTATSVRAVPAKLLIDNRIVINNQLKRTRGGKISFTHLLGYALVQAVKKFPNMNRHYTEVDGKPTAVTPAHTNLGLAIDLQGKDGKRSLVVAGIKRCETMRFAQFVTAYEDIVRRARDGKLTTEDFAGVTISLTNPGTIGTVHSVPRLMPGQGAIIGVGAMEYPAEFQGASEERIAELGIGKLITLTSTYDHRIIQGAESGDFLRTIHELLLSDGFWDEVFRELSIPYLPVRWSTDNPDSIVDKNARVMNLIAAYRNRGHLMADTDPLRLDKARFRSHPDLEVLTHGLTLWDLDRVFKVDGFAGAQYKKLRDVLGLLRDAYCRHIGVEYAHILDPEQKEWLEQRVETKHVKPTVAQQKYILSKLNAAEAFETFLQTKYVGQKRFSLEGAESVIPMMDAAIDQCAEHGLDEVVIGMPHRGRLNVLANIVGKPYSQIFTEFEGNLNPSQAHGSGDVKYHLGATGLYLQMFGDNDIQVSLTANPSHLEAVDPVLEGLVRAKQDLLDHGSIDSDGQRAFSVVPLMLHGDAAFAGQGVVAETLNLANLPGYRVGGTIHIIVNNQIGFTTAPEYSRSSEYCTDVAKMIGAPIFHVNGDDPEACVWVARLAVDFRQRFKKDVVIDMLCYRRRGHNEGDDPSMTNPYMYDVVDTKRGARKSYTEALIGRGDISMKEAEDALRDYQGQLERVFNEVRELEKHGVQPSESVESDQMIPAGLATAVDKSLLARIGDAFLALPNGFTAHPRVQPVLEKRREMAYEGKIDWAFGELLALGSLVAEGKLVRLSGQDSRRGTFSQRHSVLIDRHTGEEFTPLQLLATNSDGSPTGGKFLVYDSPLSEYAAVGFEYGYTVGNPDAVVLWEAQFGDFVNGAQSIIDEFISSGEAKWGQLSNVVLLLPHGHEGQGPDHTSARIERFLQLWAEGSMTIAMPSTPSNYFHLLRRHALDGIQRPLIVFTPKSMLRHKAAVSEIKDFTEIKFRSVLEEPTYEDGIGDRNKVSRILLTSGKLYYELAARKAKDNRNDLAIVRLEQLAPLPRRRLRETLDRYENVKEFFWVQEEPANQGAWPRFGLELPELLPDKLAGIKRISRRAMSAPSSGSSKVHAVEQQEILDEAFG

Substance | Kd [1] [nM] | Ki [2] [nM] | Kd [3] [nM]
OdhI (from UniProt Q8NQJ3) | 13.8 | 2.4 | –
GarA (from UniProt P9WJA9) | – | – | 1920
